According to article PMC6214142, “Transcription of the Human 5-Hydroxytryptamine Receptor 2B (HTR2B) Gene Is under the Regulatory Influence of the Transcription Factors NFI and RUNX1 in Human Uveal Melanoma”:

How the values were obtained:
NFIX = NFIX (Homo sapiens, UniProt Q14938 1-502); test: EMSA; EMSA: 10 mM Hepes pH 7.9, 10% glycerol, 0.1 mM EDTA, 0.5 mM DTT, 0.25 mM PMSF, 50 mM KCl, 2 ug poly(dI:dC); Tris-glycine gels at 4 C; footprinting binding 5 min
NFIB = NFIB (Homo sapiens, UniProt O00712 1-420); test: EMSA; EMSA: 10 mM Hepes pH 7.9, 10% glycerol, 0.1 mM EDTA, 0.5 mM DTT, 0.25 mM PMSF, 50 mM KCl, 2 ug poly(dI:dC); Tris-glycine gels at 4 C; footprinting binding 5 min at room temperature with 5 ug poly(dI:dC); conditions: protein: recombinant; chain copies: 2; label: 5' 32P as probe; blunt
NFIC = NFIC (Homo sapiens, UniProt P08651 1-508); test: as above; conditions: protein: recombinant; chain copies: 2; label: 5' 32P as probe; blunt
NFIC, sequence (P08651 whole entry): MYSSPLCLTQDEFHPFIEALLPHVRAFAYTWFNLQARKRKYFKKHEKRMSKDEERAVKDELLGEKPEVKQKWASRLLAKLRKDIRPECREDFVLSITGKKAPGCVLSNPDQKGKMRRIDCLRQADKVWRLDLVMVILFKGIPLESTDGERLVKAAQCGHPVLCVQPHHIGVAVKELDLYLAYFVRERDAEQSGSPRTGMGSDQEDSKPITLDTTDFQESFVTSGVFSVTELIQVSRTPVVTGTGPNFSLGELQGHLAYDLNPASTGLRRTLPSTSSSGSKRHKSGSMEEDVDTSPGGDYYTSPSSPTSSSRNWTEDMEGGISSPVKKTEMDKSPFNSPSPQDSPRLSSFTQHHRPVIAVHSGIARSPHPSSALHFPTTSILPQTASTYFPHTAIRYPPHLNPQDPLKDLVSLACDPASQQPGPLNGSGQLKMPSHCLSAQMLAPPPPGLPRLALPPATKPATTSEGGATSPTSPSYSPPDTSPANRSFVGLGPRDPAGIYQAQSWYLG

NFIA = NFIA (Homo sapiens, UniProt Q12857 1-509); test: as above; conditions: protein: recombinant; chain copies: 2; label: 5' 32P as probe; blunt
NFIA, sequence (Q12857 whole entry): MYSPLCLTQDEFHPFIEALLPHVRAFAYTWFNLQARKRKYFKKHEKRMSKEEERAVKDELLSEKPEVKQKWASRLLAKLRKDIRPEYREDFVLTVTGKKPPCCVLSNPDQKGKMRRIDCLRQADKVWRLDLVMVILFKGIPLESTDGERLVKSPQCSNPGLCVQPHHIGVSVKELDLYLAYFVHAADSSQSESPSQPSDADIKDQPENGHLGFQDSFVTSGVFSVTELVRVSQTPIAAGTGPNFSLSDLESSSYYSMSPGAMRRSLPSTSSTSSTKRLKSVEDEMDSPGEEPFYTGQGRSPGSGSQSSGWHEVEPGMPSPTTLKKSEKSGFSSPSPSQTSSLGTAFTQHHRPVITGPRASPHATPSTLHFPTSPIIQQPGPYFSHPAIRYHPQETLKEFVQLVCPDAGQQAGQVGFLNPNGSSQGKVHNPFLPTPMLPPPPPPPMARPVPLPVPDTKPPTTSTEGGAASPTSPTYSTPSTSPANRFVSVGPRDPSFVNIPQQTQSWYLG

Measured: binding result

B1: NFI high affinity probe (dsDNA)
DNA 1: TTATTTTGGATTGAAGCCAATATGAG
DNA 2: CTCATATTGGCTTCAATCCAAAATAA
binds: all assays above
